The target of the test is A beta oligomer prepared from synthetic A beta1-40 (HCl form), 0.1 mg/ml in PBS, incubated at 37 degrees C for one hour (UniProt P05067). Kind of test: SPR, Biacore 3000, A beta1-40 oligomer on CM5 chip, antibody as analyte at five concentrations.

For the substance “Anti-A beta antibody 6E10 (Covance Immuno-Technologies)”, the dissociation constant (Kd) was found to be 2.91 nM, the koff came out at 0.000168 s⁻¹ and the kon worked out at 57800 M⁻¹ s⁻¹.

(Values after US20120082667A1.)
